This is an account of results in paper PMC7241850.

The target in test [1] is HIV-1 Env E1 R563Q (HIV-1 (clade B, individual 653116)).
Test [2] addresses HIV-1 Env NE1 Q563R (HIV-1 (clade B, individual 653116)).

Turning to HIV-1 IIIB C34 Peptide, the figures for the IC50 of inhibition of infection of TZM-bl cells by pseudovirus (luciferase) in test [1] and in test [2] were 0.6 µg/mL and 0.04 µg/mL, respectively.
